According to US11505583B2, “Proteins for the treatment of epithelial barrier function disorders” (Second Genome, Inc., priority 2018, dated 2022):
Substitutions are numbered along the chain they refer to. Names and notes keep the numbering of the source.

B1: SG-11 (SEQ ID NO:7): Recombinant SG-11 with N-terminal methionine, 233 amino acids, no N-terminal tag (protein)
chain: MLEGEESVVYVGKKGVIASLDVETLDQSYYDETELKSYVDAEVEDYTAEHGKNAVKVESLKVEDGVAKLKMKYKTPEDYTAFNGIELYQGKVVASLAAGYVYDGEFARVEEGKVVGAATKQDIYSEDDLKVAIIRANTDVKVDGEICYVSCQNVKLTGKDSVSIRDGYYLETGSVTASVDVTGQESVGTEQLSGTEQMEMTGEPVNADDTEQTEAAAGDGSFETDVYTFIVYK
B2: SG-11V5: SG-11 variant SEQ ID NO:19 comprising N53S, N83S, C147V, C151S with respect to SEQ ID NO:7 (protein)
chain: B1 chain with N53S, N83S, C147V, C151S

Key:
[1] = system: human colonic epithelial cells (HCT8 enterocytes and HT29-MTX goblet cells) co-cultured with U937 monocytes; test: In vitro trans-epithelial electrical resistance (TEER) co-culture assay, barrier disruption by heat killed E. coli; assay type: cell-based; conditions: Example 12; 1 μg/ml (40 nM), 6 hours pre-incubation; HK E. coli alone 78.6%; FIG. 17
Protocol: Assays were performed as described below in trans-well plates where co-cultures of multiple cell types were performed utilizing a permeable membrane to separate cells. In the apical (top) chamber, human colonic epithelial cells, consisting of a mixture of enterocytes and goblet cells, were cultured until cells obtained tight junction formation and barrier function capacity as assessed by measurement of trans-epithelial electrical resistance (TEER). In the basolateral chamber, monocytes were cultured separately. Epithelial cells were primed with inflammatory cytokines. The assays measured the effect of a therapeutic protein, i.e., SG-11, on epithelial barrier function, muc2 gene expression, and production of cytokines.
Cell culture. The HCT8 human enterocyte cell line (ATCC Cat. No. CCL-244) was maintained in RPMI-1640 medium supplemented with 10% fetal bovine serum, 100 IU/ml penicillin, 100 μg/ml streptomycin, 10 μg/ml gentamicin and 0.25 μg/ml amphotericin (cRPMI). […]
Epithelial cell culture. […] Epithelial cells were trypsinized from culture flasks and viable cells determined by trypan blue counting. […]
Co-culture assay. […] Trans-epithelial electrical resistance (TEER) readings were measured after the IFN-γ treatment and were used as the pre-treatment TEER values. […]

[2] = system: C57BL/6 mice given 2.5% DSS in drinking water; test: Therapeutic DSS model of inflammatory bowel disease, treatment after 7 days DSS (Example 5, Example 13B); assay type: in vivo, mouse; conditions: Example 13B; for LBP in serum (ELISA): 50 nmole/kg i.p. b.i.d. for 4 days after 7 days DSS, FIG. 19B; for Colon length / Colon weight to length ratio: 50 nmole/kg, vs DSS+vehicle; for Colon length: FIG. 22B; for Colon weight to length ratio: p<0.01, FIG. 23B; for Body weight changes: 50 nmoles/kg, day 11, p<0.05, FIG. 20B
Protocol: In this example, experiments were performed to study the effects of SG-11 in the DSS mouse model when the SG-11 protein is administered to the mice after DSS treatment for 7 days. This differs from the treatment regimen of Example 4 above in which mice were administered SG-11 protein shortly before treatment with DSS.
Eight-week-old male C57BL/6 mice were housed 5 animals per cage and given food and water ad libitum for seven days. Following a 7-day acclimation period, the mice were provided with drinking water containing 2.5% DSS for 7 days. Fresh 2.5% DSS water was prepared every 2 days during the 7 day DSS administration. For this therapeutic DSS study, SG-11 used to treat the animals was fused at its N-terminus to a FLAG Tag (DYKDDDDK; SEQ ID NO:32).
On day 7 normal drinking water was restored and i.p. treatments of 50 nmole/kg of SG-11 (1.3 mg/kg) or Gly2-GLP2 (0.2 mg/kg) were initiated. Treatments were administered twice a day (b.i.d.), with a morning and evening dose (every 8 and 16 hours) for six days.
Body weight was measured daily during the morning treatment. The colon tissue was then harvested and length was measured in centimeters and the tissue was weighed. Fecal material was flushed from the colon and residual PBS removed by gently running the colon tissue through a pair of forceps. The colon tissue was then weighed and colon weight to length ratio in mg/mm was determined. Following weight measurements proximal and distal colon tissue was banked for RNA and protein analysis and the remaining tissues was fixed in 10% neutral buffered formalin for histopathology. Statistical analysis was performed by a one-way ANOVA compared to DSS+vehicle for serum 4KDa-FITC translocation, serum LBP concentrations, colon length, and colon weight to length ratio, while a two-way ANOVA was performed for analysis of body weight. In all analysis, a Fisher's LSD test for multiple comparisons was used. Graphs represent data pooled from two experiments, and are plotted as mean±SEM.
Histopathology analysis was performed on proximal and distal colon tissues from the therapeutic DSS model described above. Proximal (FIG. 13A) and distal (FIG. 13B) colon scores (range 0-4) are presented and as well as the total score for the colon which represents the sum of proximal and distal colon scores (Range 0-8) (FIG. 13C). LMA=Loss of mucosal architecture, Edema=Edema, INF=Inflammation, TMI=Transmural inflammation, MH=Mucosal hyperplasia, DYS=Dysplasia. Graphs represent data pooled from two independent experiments, and are plotted as mean±SEM. Statistical analysis was performed by a one-way ANOVA compared to DSS+vehicle followed by a Fisher's LSD test for multiple comparisons.
In the second experiment (Example 13B), mice were provided with drinking water containing 2.5% DSS for 7 days. On day 7 normal drinking water was restored and i.p. treatments of 50 nmole/kg of SG-11 (SEQ ID NO:7) (1.3 mg/kg), SG-11V5 (SEQ ID NO:19) (1.3 mg/kg), or Gly2-GLP2 (0.2 mg/kg) were initiated. Treatments were administered twice a day (b.i.d.), with a morning and evening dose (every 8 and 16 hours) for 4 days. For both the prophylactic and therapeutic models fresh 2.5% DSS water was prepared every 2 days during the DSS administration.
At the end of each DSS model study, mice were fasted for 4 hours and then orally gavaged with 600 mg/kg 4KDa dextran labeled with fluorescein isothiocyanate (FITC) [4KDa-FITC]. One hour after the 4KDa-FITC gavage mice were euthanized, blood was collected and FITC signal was measured in serum. […] Data in both graphs are plotted as mean±SEM and each figure represent data from an individual experiment (n=10 per group).
Upon completion of the DSS models above, LBP levels were measured as an inflammation centric readout of barrier function following the protocol detailed in Example 5. Upon completion of both DSS models (Examples 13A and 13B) blood was collected and serum was isolated. […]

Row | Molecule | TEER after HK E. coli (normalized, relative to untreated samples) [1] | LBP in serum (ELISA) [2] | Colon length [2] | Colon weight to length ratio [2] | Body weight changes [2]
1 | B1 | 89.5% | no reduction in LBP | significant increase in the colon length | significantly improved colon weight to length ratios | statistically improved body weight changes
2 | B2 | 89.1% | no reduction in LBP | significant increase in the colon length | significantly improved colon weight to length ratios | statistically improved body weight changes
